According to patent US6316596A, “Receptor for peptide hormones involving in energy homeostasis” (The Rockefeller University, priority 1998, dated 2001):
“Also recorded” adds a separate entry of the source. Blank lines part the entries; values can stand above or below the substance they belong to.

Experiments:
[1] = molecular target: T1, recombinant human PACAP/VIP R-2 receptor (Homo sapiens, UniProt P41587); test: stimulation of intracellular cAMP in cells expressing recombinant receptor; type: cell-based; conditions: FIG. 2B; for stimulation of intracellular cAMP formation (in words) / peptide concentration at maximum stimulation of cAMP levels: CHL cells; for stimulation of intracellular cAMP formation (in words): 45 minutes at 37° C., secretin, glucagon, GLP-I and GLP-II at μM concentrations
T1 construct: expressed in transfected cells
T1 sequence (P41587 24-438 R412H/G424A): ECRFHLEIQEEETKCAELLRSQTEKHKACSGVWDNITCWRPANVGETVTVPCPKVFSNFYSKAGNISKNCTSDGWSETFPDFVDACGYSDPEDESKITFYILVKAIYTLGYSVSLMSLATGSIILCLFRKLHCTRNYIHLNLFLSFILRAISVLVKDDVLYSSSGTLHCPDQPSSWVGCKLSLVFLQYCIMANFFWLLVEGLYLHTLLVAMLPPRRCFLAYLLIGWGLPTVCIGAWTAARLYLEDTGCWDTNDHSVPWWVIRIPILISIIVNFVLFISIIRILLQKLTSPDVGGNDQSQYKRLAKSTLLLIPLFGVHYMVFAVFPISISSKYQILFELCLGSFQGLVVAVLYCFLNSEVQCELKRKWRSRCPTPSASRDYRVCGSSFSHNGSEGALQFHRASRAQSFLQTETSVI
Text: Data points represent an average of two separate determinations (n=6), except for secretin (n=3) (see Materials and Methods). The variation among individual points was 5%.

[2] = molecular target: T1, recombinant human PACAP/VIP R-2 receptor; test: competitive binding with 125I-VIP, CHL cells expressing recombinant receptor
Procedure: Data points represent an average of two separate experiments (n=6). The variation among individual points was 10% (see Materials and Methods).
Each peptide concentration prepared in Hfank's balanced salt solution containing 20 mM HEPES, pH 7.4, 0.5% BSA and 0.1 mM phenylmethylsulfonyl-fluoride (PMSF) was added in triplicates to intact cells. Following the incubation, the cells were washed two times with ice-cold PBS, lysed with 1 N NaOH, and radioactivity measured in gamma counter. […] The variation among triplicate values was 10%.

[3] = system: CHL cells transfected with vector alone; test: intracellular cAMP in CHL cells transfected with vector alone; type: cell-based, Chinese hamster; conditions: 1.1 μM; data not shown
Procedure: Cells were grown in 24-well plates to about 50% confluence. They were washed twice with the incubation buffer (Macy's 5A pH 7.4, containing 20 mM HEPES, 0.5% BSA and 0.5 mM IBMX) and incubated with different concentration of synthetic peptides added in triplicates (μM-pM) for 45 minutes at 37° C. In each experiment forskolin (10 μM, Sigma, St. Louis, Mo.) was added as a positive control. After removal of the medium, cells were washed twice with PBS and lysed with 95% ethanol. The suspension was centrifuged at 13,000 rpm for 3 minutes, and supernatants were taken to dryness in a speed vacuum. The contents were reconstituted in 0.05 M acetate buffer (0.5 ml) and cAMP levels measured using the cAMP Biotrak SPA system (Amersham, Arlington Heights, Ill.). The variation among triplicate values was 5%. The data shown in FIG. 2B are average of two separate incubations (n=6), except for secretin (n=3).

insulin secretion = conditions: Yada et al., 1994; cited from earlier work
[4] = system: CHL cells transfected with the vector alone; test: binding of 125I-VIP to CHL cells transfected with vector alone; set-up: species or system Chinese hamster; conditions: data not shown
Procedure: Stable transformants were selected in the presence of G418 (0.8 mg/ml, GIBCO/BRL, Gaithersburg, Md.). […] Each peptide concentration prepared in Hfank's balanced salt solution containing 20 mM HEPES, pH 7.4, 0.5% BSA and 0.1 mM phenylmethylsulfonyl-fluoride (PMSF) was added in triplicates to intact cells. Following the incubation, the cells were washed two times with ice-cold PBS, lysed with 1 N NaOH, and radioactivity measured in gamma counter. […] The maximum specific binding was 5%. The variation among triplicate values was 10%.

[5] = 125I-VIP 44 pM, whole CHL cells

Substance: glucagon: glucagon
stimulation of intracellular cAMP formation (in words) [1]: did not show any stimulation | displacement of 125I-VIP binding (in words) [2, 5]: did not displace this binding

Substance: 125I-VIP: radioiodinated VIP (2000 Ci/mmol, Amersham)
binding of 125I-VIP to vector-transfected cells [4]: did not bind

Substance: glucagon-like peptide-I [GLP-I]
stimulation of intracellular cAMP formation (in words) [1]: did not show any stimulation | displacement of 125I-VIP binding (in words) [2, 5]: did not displace this binding

Second part, led by results:

peptide concentration at maximum stimulation of cAMP levels [1]: 100 nM | IC50 ([2]; read-out: ID50, displacement of 125I-VIP binding, 125I-VIP 44 pM, whole CHL cells, 15-18 hour at 4° C., VIP and PACAP-27 values estimated (incomplete displacement)): 37 nM
Substance: PACAP-27
stimulation of intracellular cAMP formation (in words) [1]: stimulated intracellular cAMP formation in a dose dependent manner | displacement of 125I-VIP binding (in words) [2, 5]: complete displacement of ^125 I-VIP binding to the recombinant PACAP/VIP R-2 was not obtainable at high PACAP-27 concentration

cAMP response at supraphysiological concentration ([1]; 1 μM PACAP-38): sharp drop to baseline levels | peptide concentration at maximum stimulation of cAMP levels [1]: 100 nM | displacement of 125I-VIP binding (in words) [2, 5]: displaced in a dose dependent manner
Substance: PACAP-38: 38-amino acid form of pituitary adenylate cyclase activating polypeptide; synthetic, purchased from Peninsula
stimulation of intracellular cAMP formation (in words) [1]: stimulated intracellular cAMP formation in a dose dependent manner | relative affinity for the receptor (in words) ([2]; competitive binding, whole cells): higher affinity than PACAP-27; also recorded: slightly higher affinity for PACAP-38 than for VIP | change of intracellular cAMP in vector-transfected cells [3]: No change of intracellular cAMP was detected | stimulation of insulin secretion (insulin secretion): ability to stimulate insulin secretion

high concentration at which 125I-VIP binding was displaced ([2]; 125I-VIP, FIG. 2A): 3.8 µM
Substance: secretin: synthetic secretin purchased from Peninsula; high sequence homology to PACAP and VIP
stimulation of intracellular cAMP formation (in words) [1]: Some increase of intracellular cAMP levels

stimulation of intracellular cAMP formation (in words) [1]: did not show any stimulation | displacement of 125I-VIP binding (in words) [2, 5]: did not displace this binding
Substance: glucagon-like peptide-II [GLP-II]
